Where “and” joins values, the source holds several entries; their conditions need not be identical. Equal values may be shown once.
T1: ecto-CRT on CT-26 cells (Mus musculus, UniProt P14211)
T1 sequence (P14211 18-416): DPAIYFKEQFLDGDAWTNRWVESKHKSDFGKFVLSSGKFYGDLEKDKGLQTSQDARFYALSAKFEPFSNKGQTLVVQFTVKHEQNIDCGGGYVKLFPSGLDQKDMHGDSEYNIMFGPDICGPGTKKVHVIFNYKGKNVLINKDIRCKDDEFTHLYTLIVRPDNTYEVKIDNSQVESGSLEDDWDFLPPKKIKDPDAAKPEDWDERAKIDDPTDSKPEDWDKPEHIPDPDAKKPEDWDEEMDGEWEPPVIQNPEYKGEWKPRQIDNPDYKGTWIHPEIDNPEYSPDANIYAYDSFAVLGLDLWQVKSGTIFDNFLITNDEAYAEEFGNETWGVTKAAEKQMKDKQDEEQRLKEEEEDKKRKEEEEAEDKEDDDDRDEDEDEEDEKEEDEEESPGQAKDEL

B1: CRT3LP: PASylated L-ASNase fused with CRT-targeting CRT3 monobody at N-terminus and PAS200 tag plus His6 tag at C-terminus (protein)
chain: MASVSDVPRDLEVVAATPTSLLISWKLGFFKRYYRITYGETGGNSPVQEFTVPGSKSTATISGLKPGVDYTITVYAVTGQPMYGQPMYPISINYRTSGGGGSGGGGSEFLPNITILATGGTIAGGGDSATKSNYTAGKVGVENLVNAVPQLKDIANVKGEQVVNIGSQDMNDDVWLTLAKKINTDCDKTDGFVITHGTDTMEETAYFLDLTVKCDKPVVMVGAMRPSTSMSADGPFNLYNAVVTAADKASANRGVLVVMNDTVLDGRDVTKTNTTDVATFKSVNYGPLGYIHNGKIDYQRTPARKHTSDTPFDVSKLNELPKVGIVYNYANASDLPAKALVDAGYDGIVSAGVGNGNLYKTVFDTLATAAKNGTAVVRSSRVPTGATTQDVEVDDAKYGFVASGTLNPQKARVLLQLALTQTKDPQQIQQIFNQYGSSGGGGSGGGGSASPAAPAPASPAAPAPSAPAASPAAPAPASPAAPAPSAPAASPAAPAPASPAAPAPSAPAASPAAPAPASPAAPAPSAPAASPAAPAPASPAAPAPSAPAASPAAPAPASPAAPAPSAPAASPAAPAPASPAAPAPSAPAASPAAPAPASPAAPAPSAPAASPAAPAPASPAAPAPSAPAASPAAPAPASPAAPAPSAPAAGSHHHHHH
B2: CRT4LP: PASylated L-ASNase fused with CRT-targeting CRT4 monobody at N-terminus and PAS200 tag plus His6 tag at C-terminus (protein)
chain: MASVSDVPRDLEVVAATPTSLLISWGQPMYGQPMYYYRITYGETGGNSPVQEFTVPGSKSTATISGLKPGVDYTITVYAVTKLGFFKRPISINYRTSGGGGSGGGGSEFLPNITILATGGTIAGGGDSATKSNYTAGKVGVENLVNAVPQLKDIANVKGEQVVNIGSQDMNDDVWLTLAKKINTDCDKTDGFVITHGTDTMEETAYFLDLTVKCDKPVVMVGAMRPSTSMSADGPFNLYNAVVTAADKASANRGVLVVMNDTVLDGRDVTKTNTTDVATFKSVNYGPLGYIHNGKIDYQRTPARKHTSDTPFDVSKLNELPKVGIVYNYANASDLPAKALVDAGYDGIVSAGVGNGNLYKTVFDTLATAAKNGTAVVRSSRVPTGATTQDVEVDDAKYGFVASGTLNPQKARVLLQLALTQTKDPQQIQQIFNQYGSSGGGGSGGGGSASPAAPAPASPAAPAPSAPAASPAAPAPASPAAPAPSAPAASPAAPAPASPAAPAPSAPAASPAAPAPASPAAPAPSAPAASPAAPAPASPAAPAPSAPAASPAAPAPASPAAPAPSAPAASPAAPAPASPAAPAPSAPAASPAAPAPASPAAPAPSAPAASPAAPAPASPAAPAPSAPAASPAAPAPASPAAPAPSAPAAGSHHHHHH

Columns and labels:
CT-26 tumor = test: In vivo anti-cancer efficacy in CT-26 tumor-bearing mice; details: for tumor suppression in mice treated with GEM: combination with GEM (non-ICD-inducing); for tumor growth in mice treated with ICD-inducing drugs: summary statement, doxorubicin and mitozantrone
Experimental: (§1) CT-26 and MC-38 tumor cells (106 in 100 μL PBS) were implanted subcutaneously into the right flanks of 6-week-old BALB/c and C57BL/6 female mice (Orient company, Korea), respectively. When the tumors reached about 100 mm^3, the tumor-bearing mice were injected intraperitoneally with anticancer agents (15 mg/kg GEM, 10 mg/kg DOX or 2 mg/kg MTX) three times every 2 days. Simultaneously, the mice were injected intravenously with the PASylated recombinant proteins of the present invention five times every 2 days. The length (L), width (W), and height (H) of each tumor were recorded every 3 days using a digital caliper, and the tumor volume (mm3) was calculated using the following formula (L×H×W)/2. Mice were euthanized when tumors were ˜1,500 mm^3 and all animal experiments were performed in accordance with the general principles and procedures outlined in the National Institutes of Health Guidelines, and all protocols were approved by the Chonnam National University Animal Care and Use Committee (permit number: HCRL 16-001).

[1] = In vivo pharmacokinetic analysis; parameters: species or system BALB/c mice; details: 10 IU intravenous, mouse serum
Experimental: Six-week-old female BALB/c mice (Orient Company, Korea) were randomly assigned to different treatment groups (n=3) and intravenously injected with 10 IU of PASylated recombinant protein. Then, blood samples were taken from the eyes at the specified time (0-52 h) and left at 4° C. for 40 min. After centrifugation at 12,000 rpm for 20 min, the serum fraction was obtained and stored at −80° C. before further analysis. PASylated recombinant protein in serum was assessed using the ELISA method described above. The amount of serum recombinant protein was converted to enzyme activity.

ecto-CRT on CT-26 cells = target: T1, ecto-CRT on CT-26 cells; test: Confocal immunofluorescence staining of CT-26 cells; assay type: cell-based; parameters: endogenous in cells; host or cells: CT-26 and MC-38 mouse colon cancer cells (in culture, or CT-26 tumors in mice)
Experimental: PASylated CRT-targeted L-ASNases bound to ecto-CRT on cells were visualized by confocal immunofluorescence microscopy with reference to the prior art (Y. Zhang, et al., Cancers, 13(11), 2801, 2021). After overnight incubation in a cover-glass, CT-26 and MC-38 cells (104) were treated with anticancer agents for 4 h at 37° C. The cells were then fixed with 1% PFA for 15 min, stained with 100 nM PASylated recombinant proteins for 1 h on ice, and treated with anti-His tagged monobodies (diluted to 1:1000) and Alexa Fluor 488-conjugated secondary antibody for 1 h (5 μg/mL). Cell membranes were stained with Alexa Fluor 555-conjugated wheat germ agglutinin (WGA) (diluted to 1:5000). Between each step, samples were washed with cold T-PBS. Finally, the cells were incubated with 4′,6-diamidino-2-phenylindole (DAPI) (Thermo Fisher Scientific, USA) to stain the nuclei. Immunofluorescence signals were imaged using an LSM510 confocal microscope (ZEISS, Jena, Germany) and data were analyzed with ZEN-LSM imaging software (ZEISS, Jena, Germany).

MC-38 tumor = test: In vivo anti-cancer efficacy in MC-38 tumor-bearing mice; parameters: species or system C57BL/6 mice; details: summary statement
Experimental: as §1

CT-26 cells = test: Cell viability (CCK-8) of CT-26 cells; assay type: cell-based, mouse; details: 1 IU/mL; for cell viability: 24 h, no anticancer pretreatment; for reduction of viability of cells pretreated with DOX and MTX, higher extent: 24 h after DOX or MTX pretreatment; for reduction in cell viability in cells pretreated with GEM: 24 h after GEM pretreatment
Experimental: CT-26 and MC-38 cells (10^4 cells per well) were seeded into three wells of a 96-well plate and incubated at 37° C. The next day, the culture medium was replaced with 100 μL of fresh medium containing the above concentrations of anticancer agents. After incubation at 37° C. for 4 h, the culture medium was removed and the cells were washed three times with PBS. […] Finally, CCK-8 reagent (10 μL/well) was added for 3 h at 37° C., and the amount of color in each sample was measured at OD450.

[2] = CT-26 cells treated with DOX or MTX

Molecule | sudden death of mice (CT-26 tumor; 20 IU CRT3LP per injection, DOX-treated mice, by day 12) | optimal therapeutic dose (CT-26 tumor; DOX-treated mice) [IU/injection/mouse] | tumor suppression in mice treated with GEM (CT-26 tumor) | tumor growth in mice treated with ICD-inducing drugs (CT-26 tumor) | half-life [1] [h] | immunofluorescence staining, binding to cells (ecto-CRT on CT-26 cells; [2]) | immunofluorescence staining, binding to cells (ecto-CRT on CT-26 cells; CT-26 cells treated with GEM) | tumor growth in mice treated with ICD-inducing drugs (MC-38 tumor) | cell viability (CT-26 cells) | reduction of viability of cells pretreated with DOX and MTX, higher extent (CT-26 cells) [fold] | reduction in cell viability in cells pretreated with GEM (CT-26 cells)
B1 | caused sudden death and 2 out of 3 and Two of the mice injected with 20 IU died | 8 | not and did not enhance tumor suppression | significantly inhibiting tumor growth | 9.34 ± 0.91 | only bound | not | significantly inhibiting tumor growth | barely affected | 2 | not observed
B2 |  |  | not and did not enhance tumor suppression | significantly inhibiting tumor growth |  | only bound | not | significantly inhibiting tumor growth | barely affected | 2 | not observed
